US20220220215A1 (CRESCENDO BIOLOGICS, published 2022)

B1: TPP-1028: CD137A-6GS-HSA3-6GS-PD138G7(G109D)-His (bispecific antibody)
chain: EVQLVESGGGLVQPGGSLRLSCAASGFTLSNYWMNWVRQAPGKGLEWVANINQDGSERYYVDSVKGRFTISRDNAKNSLYLQMNSLRAEDTAVYYCARGGEGYGVDHYGLDVSGQGTTVTVSSGGGGSGGGGSGGGGSGGGGSGGGGSGGGGSEVQLLESGGGLVKPGGSLRLSCAASGFTVSSYTMNWVRQAPGKGLEWVSSISSSGRYIYYADSVKGRFTISRDNAKNSLYLQMNSLRAEDTAVYYCARDPRMVGNPHEFDIWGQGTMVTVSSGGGGSGGGGSGGGGSGGGGSGGGGSGGGGSEVQLVESGGGVVRPGGSLRLSCAASGFTFDDYAMSWVRQAPGKGLEWVSGITWNGGSTGYADSVKDRFTISRDNAKNSLYLQMNSLRAEDTALYYCVRDKYSYAWSYDDFDIWGQGTMVTVSSAAAHHHHHH
B2: TPP-972: CD137A-6GS-PDA-6GS-HSA2-His (bispecific antibody)
chain: EVQLVESGGGLVQPGGSLRLSCAASGFTLSNYWMNWVRQAPGKGLEWVANINQDGSERYYVDSVKGRFTISRDNAKNSLYLQMNSLRAEDTAVYYCARGGEGYGVDHYGLDVSGQGTTVTVSSGGGGSGGGGSGGGGSGGGGSGGGGSGGGGSEVQLVESGGGLVQPGRSLRLSCAASGFTFDDYALHWVRQAPGKDLEWVSGISWNGGSYGYADSVKGRFTISRDNAKNSLYLQMNSLRAEDTALYYCVREKGPGLTGSTADYYGLDAWGQGTMVTVSSGGGGSGGGGSGGGGSGGGGSGGGGSGGGGSEVQLVESGGGLVKPGGSLRLSCAASGFTFSNYNMNWVRQAPGKGLEWVSSISSAGTHIYYADSVKGRFTISRDNAKNSLYLQMNSLRAEDTAVYYCARDPHSTGWYKDFDYWGQGTLVTVSSAAAHHHHHH
B3: TPP-1010: PD138G7(G109D)-6GS-HSA2-6GS-CD137D-His (bispecific antibody)
chain: EVQLVESGGGVVRPGGSLRLSCAASGFTFDDYAMSWVRQAPGKGLEWVSGITWNGGSTGYADSVKDRFTISRDNAKNSLYLQMNSLRAEDTALYYCVRDKYSYAWSYDDFDIWGQGTMVTVSSGGGGSGGGGSGGGGSGGGGSGGGGSGGGGSEVQLVESGGGLVKPGGSLRLSCAASGFTFSNYNMNWVRQAPGKGLEWVSSISSAGTHIYYADSVKGRFTISRDNAKNSLYLQMNSLRAEDTAVYYCARDPHSTGWYKDFDYWGQGTLVTVSSGGGGSGGGGSGGGGSGGGGSGGGGSGGGGSEVQLVESGGGVVQPGGSLRLSCAASGFTFSNYGMHWVRQAPGKGLEWVAVISNDGNTKTYADSVKGRFTISRDNSKNTLYLQMNSLRAEDTAVYYCAQDETTTVTASYYFDYWGQGTLVTVSSAAAHHHHHH
B4: TPP-969: PDA-6GS-HSA2-6GS-172E1-13-His (bispecific antibody)
chain: EVQLVESGGGLVQPGRSLRLSCAASGFTFDDYALHWVRQAPGKDLEWVSGISWNGGSYGYADSVKGRFTISRDNAKNSLYLQMNSLRAEDTALYYCVREKGPGLTGSTADYYGLDAWGQGTMVTVSSGGGGSGGGGSGGGGSGGGGSGGGGSGGGGSEVQLVESGGGLVKPGGSLRLSCAASGFTFSNYNMNWVRQAPGKGLEWVSSISSAGTHIYYADSVKGRFTISRDNAKNSLYLQMNSLRAEDTAVYYCARDPHSTGWYKDFDYWGQGTLVTVSSGGGGSGGGGSGGGGSGGGGSGGGGSGGGGSEVQLVESGGGVVQPGGSLRLSCAASGFTFSNYGMHWVRQAPGKGLEWVAVISNDGNTKTYADSVKGRFTISRDNSKNTLYLQMNSLRAEDTAVYYCAQDETTTVTASYYFDYWGQGTLVTVSSAAAHHHHHH
B5: TPP-1027: CD137A-6GS-HSA2-6GS-PD138G7(G109D)-His (bispecific antibody)
chain: EVQLVESGGGLVQPGGSLRLSCAASGFTLSNYWMNWVRQAPGKGLEWVANINQDGSERYYVDSVKGRFTISRDNAKNSLYLQMNSLRAEDTAVYYCARGGEGYGVDHYGLDVSGQGTTVTVSSGGGGSGGGGSGGGGSGGGGSGGGGSGGGGSEVQLVESGGGLVKPGGSLRLSCAASGFTFSNYNMNWVRQAPGKGLEWVSSISSAGTHIYYADSVKGRFTISRDNAKNSLYLQMNSLRAEDTAVYYCARDPHSTGWYKDFDYWGQGTLVTVSSGGGGSGGGGSGGGGSGGGGSGGGGSGGGGSEVQLVESGGGVVRPGGSLRLSCAASGFTFDDYAMSWVRQAPGKGLEWVSGITWNGGSTGYADSVKDRFTISRDNAKNSLYLQMNSLRAEDTALYYCVRDKYSYAWSYDDFDIWGQGTMVTVSSAAAHHHHHH
B6: TPP-973: CD137A-6GS-PDA2-6GS-HSA2-His (bispecific antibody)
chain: EVQLVESGGGLVQPGGSLRLSCAASGFTLSNYWMNWVRQAPGKGLEWVANINQDGSERYYVDSVKGRFTISRDNAKNSLYLQMNSLRAEDTAVYYCARGGEGYGVDHYGLDVSGQGTTVTVSSGGGGSGGGGSGGGGSGGGGSGGGGSGGGGSEVQLVESGGGVVRPGGSLRLSCAASGFTFDDYAMSWVRQAPGKGLEWVSGITWNAGSTGYADSVKGRFTISRDNAKNSLYLQMNSLRAEDTALYYCVRDKYSYAWSYDDFDIWGQGTMVTVSSGGGGSGGGGSGGGGSGGGGSGGGGSGGGGSEVQLVESGGGLVKPGGSLRLSCAASGFTFSNYNMNWVRQAPGKGLEWVSSISSAGTHIYYADSVKGRFTISRDNAKNSLYLQMNSLRAEDTAVYYCARDPHSTGWYKDFDYWGQGTLVTVSSAAAHHHHHH

Target: T1, biotinylated human PD-1-His tagged protein (human, UniProt Q15116 25-170, biotinylated)
T1 construct: not shown: His tag
Assay: SPR, Biacore 8K, multi-cycle kinetics; biotinylated antigen captured on streptavidin chip; 1:1 model
Protocol: (§1) Multi cycle kinetics assays were then used to evaluate the kinetics and affinity of the interaction. Experiments were performed at […] in HBS-EP+ assay buffer with a flow rate of 30 μl/minute. A streptavidin chip (Streptavidin (SA), Series S, GE Healthcare BR100531) was used to capture the biotinylated human CD137 or human PD-1 reaching a maximum of 75RU or 200RU respectively. A second flow cell without any captured antigen was used as the reference cell. […] The binding kinetics were followed by flowing these over the chip surface. The contact time for the binding steps was 360 or 180 seconds and the dissociation step was 3600 or 1200 seconds for human CD137 and PD1 respectively. After each run, the sensors were regenerated with glycine pH 1.5 to remove the captured Humabody® VH. The data was fitted to a 1:1 binding model after reference subtraction using the Biacore Evaluation software. Example kinetic and binding affinity data obtained is shown Table 19.

Row | Kd [nM] | koff [s⁻¹] | kon [M⁻¹ s⁻¹] | Binder
1 | 5.83 | 0.00235 | 403000 | B1
2 | 11.8 | 0.000761 | 64300 | B2
3 | 5.5 | 0.00274 | 498000 | B3
4 | 13.4 | 0.000915 | 68500 | B4
5 | 5.95 | 0.00246 | 413000 | B5
6 | 71.6 | 0.014 | 195000 | B6

Target: T2, biotinylated human CD137-His (human, UniProt Q07011 24-186, biotinylated)
T2 construct: not shown: His tag
Assay: as above
Protocol: as §1

Row | Kd [nM] | koff [s⁻¹] | kon [M⁻¹ s⁻¹] | Binder
7 | 0.0281 | 1.9e-05 | 674000 | B1
8 | 0.01 | 1.55e-05 | 1.54e+06 | B2
9 | 21.1 | 0.00366 | 173000 | B3
10 | 20.9 | 0.00255 | 122000 | B4
11 | 0.023 | 2.87e-05 | 1.25e+06 | B5
12 | 0.108 | 2.57e-05 | 237000 | B6

Target: human CD137 expressed on cells (Jurkat human CD137 NF-kB luciferase reporter cells; human CD8+ T cells) (human, UniProt Q07011 24-255)
Assay: cell-based or functional assay

Row | Jurkat-CD137/CHO-PD-1 Reporter Assay EC50 [pM] | Binder
13 | 312 | B1
14 | 321 | B2
15 | 2290 | B3
16 | 11100 | B4
17 | 238 | B5
18 | 254 | B6
